Patent publication US20110256153A1 (IMMUNOGEN, published 2011)
Residue numbers refer to the chain shown, from its start. Values belong to the binder of their own block, whether it stands above or below them.

How the values were obtained:
macaque CD37 = molecular target: T1, macaque CD37 (macaque, UniProt P11049 1-277 (human entry)); assay: flow cytometry, 300-19/CD37mac cells
T1 construct: Expressed on 300-19 cells transfected with pSRa-CD37mac (300-19/CD37mac cells); also called macaca CD37; macaque derived CD37 antigen
T1 chain: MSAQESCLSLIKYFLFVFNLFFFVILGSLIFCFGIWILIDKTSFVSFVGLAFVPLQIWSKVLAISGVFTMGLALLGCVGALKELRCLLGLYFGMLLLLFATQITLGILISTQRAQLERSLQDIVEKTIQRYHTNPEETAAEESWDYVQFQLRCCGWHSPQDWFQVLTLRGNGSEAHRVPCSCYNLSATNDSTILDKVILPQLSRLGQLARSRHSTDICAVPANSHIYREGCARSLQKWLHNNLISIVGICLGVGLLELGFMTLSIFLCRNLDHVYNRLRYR
Experimental: (§1) Binding specificity was tested by flow cytometry using purified antibodies. […] All murine antibodies were incubated for 3 h with either CD37-expressing 300-19 cells or the non-transfected 300-19 cells (1×10⁵ cells per sample) in 100 μL FACS buffer (RPMI-1640 medium supplemented with 2% normal goat serum). Then, the cells were pelleted, washed, and incubated for 1 h with 100 μL of FITC-conjugated goat anti-mouse IgG-antibody (Jackson Laboratory, 6 μg/mL in FACS buffer). The cells were pelleted again, washed with FACS buffer and resuspended in 200 μL of PBS containing 1% formaldehyde. Samples were acquired using a FACSCalibur flow cytometer with the HTS multiwell sampler or a FACS array flow cytometer and analyzed using CellQuest Pro (all from BD Biosciences, San Diego, US).
The murine antibodies muCD37-3, muCD37-12, muCD37-38, […], muCD37-51, muCD37-56 and muCD37-57 were assayed for their ability to bind to 300-19/CD37mac cells expressing macaque CD37. Flow cytometry binding assays were carried out using secondary FITC-conjugated goat-anti-murine or goat-anti-human antibodies, analyzed as described in Example 2. Binding was compared to the previously described anti-CD37 antibody WR17 and the anti-CD37 SMIP TRU-016. […] In contrast, muCD37-3, muCD37-12, the previously described anti-CD37 antibody WR17 and the anti-CD37 SMIP TRU-016 are unable to bind the macaque derived CD37 antigen.

hCD37-M45 [1] = molecular target: T2, hCD37-M45 (human/murine chimera, UniProt P11049 1-281); assay: flow cytometry, 300-19 cells expressing hCD37-M45
T2 construct: stably expressed on 300-19 cells; also called hCD37-M45 variant
T2 chain: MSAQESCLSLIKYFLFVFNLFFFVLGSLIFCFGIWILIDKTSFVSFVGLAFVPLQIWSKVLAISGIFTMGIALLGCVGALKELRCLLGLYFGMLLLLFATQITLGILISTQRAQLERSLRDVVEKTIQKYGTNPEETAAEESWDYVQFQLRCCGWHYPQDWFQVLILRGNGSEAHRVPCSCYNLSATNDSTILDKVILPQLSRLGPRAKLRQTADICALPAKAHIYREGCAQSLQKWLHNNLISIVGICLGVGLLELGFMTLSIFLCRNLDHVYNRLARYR
Experimental: as §1
(§2) Binding of various CD37 antibodies to cells expressing human CD37 wildtype and variants was analyzed by flow cytometry using 1.5 μg/mL of each antibody. The isolated antibodies of this invention were compared to commercially available CD37 antibody WR17, as well as the TRU-016 SMIP. […] Likewise, all antibodies tested bound the hCD37-M3 variant (FIG. 18B). In contrast, the isolated antibodies of this invention bound the hCD37-M1 variant, while TRU-016 and WR17 were unable to bind hCD37-M1 variant (FIG. 19A). The CD37-50 and CD37-51 antibodies and TRU-016 were also able to bind the hCD37-M45 variant. […] In contrast, the CD37-3, CD37-12, CD37-38, CD37-56 and CD37-57 antibodies require at least one of the AA residues in the hCD37-M45 variant that were changed to the corresponding murine AA residues for binding to the CD37 antigen.

human CD37 [2] = molecular target: T3, human CD37 (human, UniProt P11049 1-278); assay: flow cytometry titration on Ramos cells; apparent Kd
T3 construct: Tetraspanin antigen; Expressed on 300-19 cells transfected with pSRa-CD37 (entire CDS) or endogenous on WSU-DLCL-2, BJAB and Ramos lymphoma cells; also called CD37 antigen; human CD37 wildtype
T3 sequence: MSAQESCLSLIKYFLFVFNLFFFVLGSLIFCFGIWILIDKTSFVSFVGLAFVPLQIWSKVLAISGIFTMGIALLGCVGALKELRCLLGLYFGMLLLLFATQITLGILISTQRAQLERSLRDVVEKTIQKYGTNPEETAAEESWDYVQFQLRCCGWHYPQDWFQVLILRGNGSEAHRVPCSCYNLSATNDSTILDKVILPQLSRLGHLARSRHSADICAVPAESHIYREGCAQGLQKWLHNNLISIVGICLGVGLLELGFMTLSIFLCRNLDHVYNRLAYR
Experimental: as §1
The chimeric antibodies chCD37-3 and chCD37-12 were assayed for their binding affinity to Ramos cells in comparison to their murine counterparts. Flow cytometry binding assays using Ramos cells and muCD37-3, chCD37-3, muCD37-12 and chCD37-12 antibodies were carried out and analyzed as described in Example 2 using secondary FITC-conjugated goat-anti-murine and -anti-human antibodies. FIG. 9A depicts the dose-response curves generated by non-linear regression for each antibody. The value for the apparent dissociation constant (Kd) of each antibody was calculated using GraphPad Prism v4 (GraphPad software, San Diego, Calif.).

hCD37-M1 = molecular target: T4, hCD37-M1 (human/murine chimera, UniProt P11049 1-281); assay: flow cytometry, 300-19 cells expressing hCD37-M1, 1.5 µg/mL antibody
T4 construct: stably expressed on 300-19 cells; also called hCD37-M1 variant
T4 chain: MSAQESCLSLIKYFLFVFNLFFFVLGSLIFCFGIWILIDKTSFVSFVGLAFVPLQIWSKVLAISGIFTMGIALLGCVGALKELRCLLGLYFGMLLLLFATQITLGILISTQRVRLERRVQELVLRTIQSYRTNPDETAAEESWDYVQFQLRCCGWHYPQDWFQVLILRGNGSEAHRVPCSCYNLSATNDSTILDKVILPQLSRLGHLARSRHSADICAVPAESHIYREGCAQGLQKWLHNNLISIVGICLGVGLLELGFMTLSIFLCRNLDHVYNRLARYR
Experimental: as §1, §2

hCD37-M3 = molecular target: T5, hCD37-M3 (human/murine chimera, UniProt P11049 1-281); assay: flow cytometry, 300-19 cells expressing hCD37-M3, 1.5 µg/mL antibody
T5 construct: stably expressed on 300-19 cells; also called hCD37-M3 variant
T5 chain: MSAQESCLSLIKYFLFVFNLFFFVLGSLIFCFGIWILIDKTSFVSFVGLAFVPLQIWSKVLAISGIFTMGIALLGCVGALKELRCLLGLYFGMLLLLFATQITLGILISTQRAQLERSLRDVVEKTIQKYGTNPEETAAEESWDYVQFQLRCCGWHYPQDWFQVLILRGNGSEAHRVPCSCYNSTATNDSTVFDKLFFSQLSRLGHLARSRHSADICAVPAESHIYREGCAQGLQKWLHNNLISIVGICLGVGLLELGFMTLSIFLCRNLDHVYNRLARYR
Experimental: as §1, §2

human CD37 [3] = molecular target: T3, human CD37; assay: flow cytometry titration on WSU-DLCL-2 cells; EC50 taken as apparent Kd
Experimental: as §1
To verify that the antibodies can also bind to endogenously expressed CD37, binding experiments were performed with CD37-positive WSU-DLCL-2 lymphoma cells and the muCD37-3, muCD37-12, muCD37-8, muCD37-10 or muCD37-14 antibodies. WSU-DLCL-2 cells were incubated with varying concentrations of murine antibodies and processed as described above for flow cytometry analysis. Data analysis was performed using CellQuest Pro (BD Biosciences, San Diego, US) and for each sample the mean fluorescence intensity for FL1 (MFI) was exported and plotted against the antibody concentration in a semi-log plot (FIG. 3). […]

human CD37 [4] = molecular target: T3, human CD37; assay: flow cytometry titration on BJAB cells; apparent Kd
In short: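 BJAB cells were incubated 3 h with titrated antibody in RPMI-1640 containing 2% goat serum, then 1 h with FITC anti-mouse or anti-human IgG, fixed in 1% formaldehyde and read by flow cytometry. Apparent Kd was derived by non-linear regression of the dose-response curves.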

hCD37-M45 [5] = molecular target: T2, hCD37-M45; assay: flow cytometry, 300-19 cells expressing hCD37-M45, 1.5 µg/mL antibody
Experimental: as §1
Binding of various CD37 antibodies to cells expressing human CD37 wildtype and variants was analyzed by flow cytometry using 1.5 μg/mL of each antibody. The isolated antibodies of this invention were compared to commercially available CD37 antibody WR17, as well as the TRU-016 SMIP. […] Likewise, all antibodies tested bound the hCD37-M3 variant (FIG. 18B). In contrast, the isolated antibodies of this invention bound the hCD37-M1 variant, while TRU-016 and WR17 were unable to bind hCD37-M1 variant (FIG. 19A). The CD37-50 and CD37-51 antibodies and TRU-016 were also able to bind the hCD37-M45 variant. […]

binding result (macaque CD37): no binding
binding result (hCD37-M45 [1]): no binding (tested: 1.5 µg/mL)
Kd (human CD37 [2]): 0.8 nM
binding result (hCD37-M1): binds
binding result (hCD37-M3): binds
Kd (human CD37 [3]): 1.1 nM
B1: muCD37-12 (antibody, mouse IgG2a, kappa)
heavy: QIQLVQSGPELKKPGETVKISCKASGYTFTKYGMNWVKQAQGKGLKWMGWINTNTGESRNAEEFKGRFAFSLETSASTAYLQINNLKYEDTATYFCGRGTVVADWGQGTTLTVSSAKTTAPSVYPLAPVCGDTTGSSVTLGCLVKGYFPEPVTLTWNSGSLSSGVHTFPAVLQSDLYTLSSSVTVTSSTWPSQSITCNVAHPASSTKVDKKIEPRGPTIKPCPPCKCPAPNLLGGPSVFIFPPKIKDVLMISLSPIVTCVVVDVSEDDPDVQISWFVNNVEVHTAQTQTHREDYNSTLRVVSALPIQHQDWMSGKEFKCKVNNKDLPAPIERTISKPKGSVRAPQVYVLPPPEEEMTKKQVTLTCMVTDFMPEDIYVEWTNNGKTELNYKNTEPVLDSDGSYFMYSKLRVEKKNWVERNSYSCSVVHEGLHNHHTTKSFSRTPGK
light: DIVLTQSPASLAVSLGQRATISCRASQSVSTSSYSYLYWFQQKPGQPPKLLIKYASNLASGVPARFSGSGSGTDFTLNIHPVEEEDTATYYCQHSWEIPYTFGGGTKLEIKRADAAPTVSIFPPSSEQLTSGGASVVCFLNNFYPKDINVKWKIDGSERQNGVLNSWTDQDSKDSTYSMSSTLTLTKDEYERHNSYTCEATHKTSTSPIVKSFNRNEC
notes: Murine hybridoma antibody

Kd (human CD37 [4]): 0.6 nM
binding result (hCD37-M1): binds
binding result (hCD37-M3): binds
binding result (hCD37-M45 [5]): binds
B2: muCD37-50 (antibody, mouse IgG2a, kappa, V domains shown)
VH: DVQLQESGPDLLKPSQSLSLTCTVTGYSITSGFAWHWIRQFPGNKLEWMGYILYSGSTVYSPSLKSRISITRDTSKNHFFLQLNSVTTEDTATYYCARGYYGYGAWFAYWGQGTLVTVSA
VL: QIVLTQSPAIMSASPGEKVTMTCSATSSVTYMHWYQQKSGTSPKRWIYDTSKLPYGVPGRFSGSGSGTSYSLTISSMEAEDAATYYCQQWSDNPPTFGSGTKLEIKR
notes: Murine hybridoma antibody

binding result (macaque CD37): binds
Kd (human CD37 [4]): 0.6 nM
binding result (hCD37-M1): binds
binding result (hCD37-M3): binds
binding result (hCD37-M45 [5]): binds
B3: muCD37-51 (antibody, mouse IgG2a, kappa, V domains shown)
VH: B2 VH with T30S, L53H, V59N, T74S, H78Q, Y103F, A108V
VL: B2 VL with P54A, Y55S, G59A, S76N, D92S
notes: Murine hybridoma antibody
